In general, Kd refers to the concentration at which binding is half-saturated.

Common to all, as to assay: ITC
(In general: Isothermal titration calorimetry measures the heat released or taken up as one component is titrated into another.)

The target in experiment [1] is T1, AnkB 28–847 (MBD + partial AI-c) (human, UniProt Q01484-2 28-847).
T1 chain: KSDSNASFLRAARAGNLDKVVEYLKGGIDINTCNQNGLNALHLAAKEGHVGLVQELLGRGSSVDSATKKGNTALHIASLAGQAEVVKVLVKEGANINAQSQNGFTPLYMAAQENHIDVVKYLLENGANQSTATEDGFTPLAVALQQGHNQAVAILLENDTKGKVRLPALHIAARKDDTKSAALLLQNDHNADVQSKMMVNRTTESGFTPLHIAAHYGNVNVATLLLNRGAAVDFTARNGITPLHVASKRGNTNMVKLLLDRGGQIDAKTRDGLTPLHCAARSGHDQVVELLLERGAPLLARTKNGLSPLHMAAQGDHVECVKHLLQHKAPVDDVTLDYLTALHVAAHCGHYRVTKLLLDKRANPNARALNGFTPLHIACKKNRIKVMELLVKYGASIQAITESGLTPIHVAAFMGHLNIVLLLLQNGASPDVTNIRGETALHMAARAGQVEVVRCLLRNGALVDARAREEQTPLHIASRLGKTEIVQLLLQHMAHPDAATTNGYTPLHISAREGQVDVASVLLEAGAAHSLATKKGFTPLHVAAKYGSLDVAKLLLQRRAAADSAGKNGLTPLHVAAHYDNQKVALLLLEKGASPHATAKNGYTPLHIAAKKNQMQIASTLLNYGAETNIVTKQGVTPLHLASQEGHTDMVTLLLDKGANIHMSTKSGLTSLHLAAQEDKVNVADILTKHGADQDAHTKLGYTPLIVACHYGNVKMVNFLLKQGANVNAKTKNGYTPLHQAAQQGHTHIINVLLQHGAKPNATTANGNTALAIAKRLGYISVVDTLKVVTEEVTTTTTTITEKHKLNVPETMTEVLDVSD

The target in experiment [2] is T2, AnkB 28–965 (MBD + AI-c + AI-b) (human, UniProt Q01484-2 28-965).
T2 chain: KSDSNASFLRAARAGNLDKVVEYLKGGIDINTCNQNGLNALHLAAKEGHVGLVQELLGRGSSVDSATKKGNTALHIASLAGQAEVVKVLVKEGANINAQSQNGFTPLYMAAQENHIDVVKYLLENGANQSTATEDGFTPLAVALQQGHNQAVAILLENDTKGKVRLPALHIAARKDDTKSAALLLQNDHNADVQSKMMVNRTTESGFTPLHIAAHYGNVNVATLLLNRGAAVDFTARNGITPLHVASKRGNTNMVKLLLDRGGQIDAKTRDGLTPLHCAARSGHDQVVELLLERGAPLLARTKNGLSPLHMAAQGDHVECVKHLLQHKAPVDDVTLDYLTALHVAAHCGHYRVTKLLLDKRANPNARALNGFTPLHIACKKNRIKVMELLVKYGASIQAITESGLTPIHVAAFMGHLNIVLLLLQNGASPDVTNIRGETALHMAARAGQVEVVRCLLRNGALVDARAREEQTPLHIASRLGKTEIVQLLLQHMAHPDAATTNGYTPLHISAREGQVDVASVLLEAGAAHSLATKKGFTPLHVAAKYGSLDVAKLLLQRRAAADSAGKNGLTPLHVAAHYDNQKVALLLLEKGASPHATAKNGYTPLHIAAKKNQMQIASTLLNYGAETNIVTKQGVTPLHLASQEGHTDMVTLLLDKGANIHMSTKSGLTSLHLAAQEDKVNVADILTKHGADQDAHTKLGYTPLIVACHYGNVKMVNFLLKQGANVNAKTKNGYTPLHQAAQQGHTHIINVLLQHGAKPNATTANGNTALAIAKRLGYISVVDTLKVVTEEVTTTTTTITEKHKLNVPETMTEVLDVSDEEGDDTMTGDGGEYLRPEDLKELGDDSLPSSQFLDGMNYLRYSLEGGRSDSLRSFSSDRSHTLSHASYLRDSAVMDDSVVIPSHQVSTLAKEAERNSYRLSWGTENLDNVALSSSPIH

A further experiment has as its target T3, AnkB ΔZZUD (human, UniProt Q01484-2 1-1872).
T3 chain: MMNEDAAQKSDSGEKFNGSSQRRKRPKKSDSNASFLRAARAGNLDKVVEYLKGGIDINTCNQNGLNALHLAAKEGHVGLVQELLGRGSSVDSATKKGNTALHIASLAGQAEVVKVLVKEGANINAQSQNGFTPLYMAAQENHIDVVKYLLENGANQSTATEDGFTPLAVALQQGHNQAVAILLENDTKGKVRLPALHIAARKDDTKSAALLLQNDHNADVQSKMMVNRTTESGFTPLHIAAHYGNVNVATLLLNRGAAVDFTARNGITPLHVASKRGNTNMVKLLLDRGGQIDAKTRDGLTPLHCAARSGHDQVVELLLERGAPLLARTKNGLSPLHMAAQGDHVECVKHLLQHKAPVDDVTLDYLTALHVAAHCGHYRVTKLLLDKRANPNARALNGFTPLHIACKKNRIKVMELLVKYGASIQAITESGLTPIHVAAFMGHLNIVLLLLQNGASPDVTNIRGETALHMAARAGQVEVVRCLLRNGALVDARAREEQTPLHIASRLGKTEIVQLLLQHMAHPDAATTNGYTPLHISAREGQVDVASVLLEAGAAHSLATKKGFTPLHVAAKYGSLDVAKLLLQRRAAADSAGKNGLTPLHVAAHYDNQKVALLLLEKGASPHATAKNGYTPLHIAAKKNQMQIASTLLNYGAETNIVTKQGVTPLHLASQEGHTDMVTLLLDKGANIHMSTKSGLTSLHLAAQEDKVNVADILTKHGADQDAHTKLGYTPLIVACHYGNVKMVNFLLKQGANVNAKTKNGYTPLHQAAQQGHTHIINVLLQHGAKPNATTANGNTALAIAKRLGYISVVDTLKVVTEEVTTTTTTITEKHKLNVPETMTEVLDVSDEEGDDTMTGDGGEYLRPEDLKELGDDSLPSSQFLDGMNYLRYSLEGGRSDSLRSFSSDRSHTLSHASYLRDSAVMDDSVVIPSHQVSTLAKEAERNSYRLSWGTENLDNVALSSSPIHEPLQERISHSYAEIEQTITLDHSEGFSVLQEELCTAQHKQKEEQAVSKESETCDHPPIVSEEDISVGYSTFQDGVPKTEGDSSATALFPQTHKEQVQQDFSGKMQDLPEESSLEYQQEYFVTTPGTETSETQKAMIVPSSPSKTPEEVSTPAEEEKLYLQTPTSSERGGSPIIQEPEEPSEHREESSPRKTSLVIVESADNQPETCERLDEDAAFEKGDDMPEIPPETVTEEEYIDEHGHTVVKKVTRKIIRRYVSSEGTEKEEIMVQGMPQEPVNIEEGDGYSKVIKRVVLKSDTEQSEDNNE

Consider SDDSLVDYGEGGEGQFNEDGSFIGQYTV (domain or fragment) [NF186 (aa 1187–1214)], for which the Kd turned out to be 0.49 µM in experiment [1], 23 µM in experiment [2] and 14 µM with AnkB ΔZZUD.

These data come from article PMC5779224 (2017).
